Test results as given in US20130052739.
Where two headings read alike, the source gives them in different places.

Tests used:
[1] = target: T1, FLP recombinase (native yeast) (Saccharomyces cerevisiae) (UniProt P03870); test: cleavage_in_vitro
T1 sequence: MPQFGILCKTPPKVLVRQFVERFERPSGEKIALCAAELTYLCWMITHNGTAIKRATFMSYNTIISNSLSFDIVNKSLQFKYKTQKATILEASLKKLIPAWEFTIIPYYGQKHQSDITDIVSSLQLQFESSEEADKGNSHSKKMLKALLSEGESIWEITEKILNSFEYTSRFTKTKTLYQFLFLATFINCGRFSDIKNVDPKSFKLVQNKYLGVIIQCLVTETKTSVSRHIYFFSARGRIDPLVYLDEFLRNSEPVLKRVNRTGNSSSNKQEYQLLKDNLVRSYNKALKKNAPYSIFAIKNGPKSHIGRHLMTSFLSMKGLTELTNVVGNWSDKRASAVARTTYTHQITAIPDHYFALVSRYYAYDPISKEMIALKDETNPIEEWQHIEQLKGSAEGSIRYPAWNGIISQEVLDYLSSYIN

[2] = target: T1, FLP recombinase (native yeast) (Saccharomyces cerevisiae)

| Sequence | activity (% excision efficiency relative to FRT1) ([1]; 30 C, 10 mM MgCl2) | further results |
| --- | --- | --- |
| AGTTCCTATACTATACAAAGAATAGGAACT (double strand) [FRT70] | 25 |  |
| AGTTCCTATACTCCACAGAGAATAGGAACT (double strand) [FRT55] | 7 |  |
| AGTTCCTATACTCTATGTAGAATAGGAACT (double strand) [FRT12] | 102 |  |
| AGTTCCTATACTCTCTAGAGAATAGGAACT (double strand) [FRT89] | 39 |  |
| AGTTCCTATACTCTCTTGAGAATAGGAACT (double strand) [FRT45] | 5 |  |
| AGTTCCTATACTCTTTTGAGAATAGGAACT (double strand) [FRT5] | 15 | activity (% co-integrants at 2 h) ([2]; in vitro co-integration FRT5+FRT5, 10 mM MgCl2, 5 mM DTT): 0.09 |
| AGTTCCTATACTGAAAAGAGAATAGGAACT (double strand) [FRT78] | 60 |  |
| AGTTCCTATACTGAGAGAAGAATAGGAACT (double strand) [FRT74] | 5 |  |
| AGTTCCTATACTGATTGGAGAATAGGAACT (double strand) [FRT65] | 18 |  |
| AGTTCCTATACTGTAAAAAGAATAGGAACT (double strand) [FRT53] | 64 |  |
| AGTTCCTATACTGTAATGAGAATAGGAACT (double strand) [FRT34] | 34 |  |
| AGTTCCTATACTTCCATAAGAATAGGAACT (double strand) [FRT76] | 30 |  |
| AGTTCCTATACTTCCGAGAGAATAGGAACT (double strand) [FRT43] | 14 |  |
| AGTTCCTATACTTTAGGTAGAATAGGAACT (double strand) [FRT62] | 72 |  |
| AGTTCCTATACTTTCTAGAGAATAGGAACT (double strand) [FRT1 (wild-type minimal FRT)] |  | activity (% excision efficiency relative to FRT1) ([1]; reference pair, 25 mM Tris pH 7.5, 10 mM MgCl2, 5 mM DTT, 30 C 30 min): 100; activity (% co-integrants at 2 h) ([2]; in vitro co-integration FRT1+FRT1, 10 mM MgCl2, 5 mM DTT): 1.03 |
| AGTTCCTATACTTTCTCGAGAATAGGAACT (double strand) [FRT86] | 12 |  |
| AGTTCCTATACTTTCTGGAGAATAGGAACT (double strand) [FRT87] | 93 |  |
| AGTTCCTATACTTTCTTGAGAATAGGAACT (double strand) [FRT85] | 116 |  |
| AGTTCCTATACTTTTCTAAGAATAGGAACT (double strand) [FRT57] | 82 |  |
| AGTTCCTATACTTTTGTGAGAATAGGAACT (double strand) [FRT69] | 9 |  |
| AGTTCCTATACTTTTTGAAGAATAGGAACT (double strand) [FRT6] |  | activity (% co-integrants at 2 h) ([2]; in vitro co-integration FRT6+FRT6, 10 mM MgCl2, 5 mM DTT): 0.27 |
